Experiments:
[1] = molecular target: C3b (human, UniProt P01024); experiment: SPR
[2] = molecular target: the molecule itself; experiment: SAXS

Sequence of C3b (P01024 23-667, chain 1 of 2): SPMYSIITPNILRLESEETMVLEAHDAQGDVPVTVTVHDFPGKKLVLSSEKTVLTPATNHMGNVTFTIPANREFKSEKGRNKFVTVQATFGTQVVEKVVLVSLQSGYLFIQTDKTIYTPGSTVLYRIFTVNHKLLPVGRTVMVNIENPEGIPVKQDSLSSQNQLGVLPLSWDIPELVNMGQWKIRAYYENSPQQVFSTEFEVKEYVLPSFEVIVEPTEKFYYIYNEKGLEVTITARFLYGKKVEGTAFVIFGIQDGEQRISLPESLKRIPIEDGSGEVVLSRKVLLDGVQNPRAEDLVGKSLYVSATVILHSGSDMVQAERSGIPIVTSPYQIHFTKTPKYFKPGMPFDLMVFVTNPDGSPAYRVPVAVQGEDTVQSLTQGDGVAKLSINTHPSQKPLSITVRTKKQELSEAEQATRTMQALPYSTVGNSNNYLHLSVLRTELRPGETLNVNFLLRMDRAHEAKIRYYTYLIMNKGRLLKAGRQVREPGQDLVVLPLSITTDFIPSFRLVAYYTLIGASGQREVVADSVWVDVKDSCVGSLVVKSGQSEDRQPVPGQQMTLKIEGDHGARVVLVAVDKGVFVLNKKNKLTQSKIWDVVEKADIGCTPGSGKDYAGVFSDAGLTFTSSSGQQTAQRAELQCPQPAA
Sequence of C3b (P01024 749-1663, chain 2 of 2): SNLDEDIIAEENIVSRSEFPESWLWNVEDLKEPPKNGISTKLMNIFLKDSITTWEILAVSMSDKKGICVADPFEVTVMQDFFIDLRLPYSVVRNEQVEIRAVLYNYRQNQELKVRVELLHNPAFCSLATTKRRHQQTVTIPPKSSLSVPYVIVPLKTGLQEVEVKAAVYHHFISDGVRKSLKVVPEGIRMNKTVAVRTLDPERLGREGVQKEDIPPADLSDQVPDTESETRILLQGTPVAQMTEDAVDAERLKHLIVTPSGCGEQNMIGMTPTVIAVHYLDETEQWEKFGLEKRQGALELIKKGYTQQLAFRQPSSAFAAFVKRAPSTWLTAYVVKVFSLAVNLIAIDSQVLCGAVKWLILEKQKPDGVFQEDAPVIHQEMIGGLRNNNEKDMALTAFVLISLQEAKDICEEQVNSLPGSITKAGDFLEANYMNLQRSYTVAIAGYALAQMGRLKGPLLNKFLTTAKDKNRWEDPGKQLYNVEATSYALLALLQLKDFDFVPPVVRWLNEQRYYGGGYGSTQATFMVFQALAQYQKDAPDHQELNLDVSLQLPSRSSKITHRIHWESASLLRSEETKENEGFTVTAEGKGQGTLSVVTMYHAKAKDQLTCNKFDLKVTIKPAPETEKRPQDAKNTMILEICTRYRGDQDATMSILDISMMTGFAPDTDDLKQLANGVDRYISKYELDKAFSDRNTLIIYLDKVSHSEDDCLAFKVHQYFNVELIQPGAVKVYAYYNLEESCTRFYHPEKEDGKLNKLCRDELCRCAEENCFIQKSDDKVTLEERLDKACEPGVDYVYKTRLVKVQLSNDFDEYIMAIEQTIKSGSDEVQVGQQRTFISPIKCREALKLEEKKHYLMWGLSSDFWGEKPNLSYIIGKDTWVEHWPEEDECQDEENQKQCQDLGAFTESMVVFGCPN

B1: factor H-related protein 5 (FHR-5), recombinant (natural protein)
chain: EGTLCDFPKIHHGFLYDEEDYNPFSQVPTGEVFYYSCEYNFVSPSKSFWTRITCTEEGWSPTPKCLRMCSFPFVKNGHSESSGLIHLEGDTVQIICNTGYSLQNNEKNISCVERGWSTPPICSFTKGECHVPILEANVDAQPKKESYKVGDVLKFSCRKNLIRVGSDSVQCYQFGWSPNFPTCKGQVRSCGPPPQLSNGEVKEIRKEEYGHNEVVEYDCNPNFIINGPKKIQCVDGEWTTLPTCVEQVKTCGYIPELEYGYVQPSVPPYQHGVSVEVNCRNEYAMIGNNMITCINGIWTELPMCVATHQLKRCKIAGVNIKTLLKLSGKEFNHNSRIRYRCSDIFRYRHSVCINGKWNPEVDCTEKREQFCPPPPQIPNAQNMTTTVNYQDGEKVAVLCKENYLLPEAKEIVCKDGRWQSLPRCVESTAYCGPPPSINNGDTTSFPLSVYPPGSTVTYRCQSFYKLQGSVTVTCRNKQWSEPPRCLDPCVVSEENMNKNNIQLKWRNDGKLYAKTGDAVEFQCKFPHKAMISSPPFRAICQEGKFEYPICE
**Q.** Does B1 bind [1]?
**A.** binds

B2: FH_(19-20), the C-terminal part of factor H (SCR 19-20), recombinant (domain or fragment)
chain: KDSTGKCGPPPPIDNGDITSFPLSVYAPASSVEYQCQNLYQLEGNKRITCRNGQWSEPPKCLHPCVISREIMENYNIALRWTAKQKLYSRTGESVEFVCKRGYRLSSRSHTLRTTCWDGKLEYPTCAKR
**Q.** Does B2 bind [1]?
**A.** binds

B3: Factor H (FH), plasma purified (natural protein)
chain: EDCNELPPRRNTEILTGSWSDQTYPEGTQAIYKCRPGYRSLGNVIMVCRKGEWVALNPLRKCQKRPCGHPGDTPFGTFTLTGGNVFEYGVKAVYTCNEGYQLLGEINYRECDTDGWTNDIPICEVVKCLPVTAPENGKIVSSAMEPDREYHFGQAVRFVCNSGYKIEGDEEMHCSDDGFWSKEKPKCVEISCKSPDVINGSPISQKIIYKENERFQYKCNMGYEYSERGDAVCTESGWRPLPSCEEKSCDNPYIPNGDYSPLRIKHRTGDEITYQCRNGFYPATRGNTAKCTSTGWIPAPRCTLKPCDYPDIKHGGLYHENMRRPYFPVAVGKYYSYYCDEHFETPSGSYWDHIHCTQDGWSPAVPCLRKCYFPYLENGYNQNYGRKFVQGKSIDVACHPGYALPKAQTTVTCMENGWSPTPRCIRVKTCSKSSIDIENGFISESQYTYALKEKAKYQCKLGYVTADGETSGSITCGKDGWSAQPTCIKSCDIPVFMNARTKNDFTWFKLNDTLDYECHDGYESNTGSTTGSIVCGYNGWSDLPICYERECELPKIDVHLVPDRKKDQYKVGEVLKFSCKPGFTIVGPNSVQCYHFGLSPDLPICKEQVQSCGPPPELLNGNVKEKTKEEYGHSEVVEYYCNPRFLMKGPNKIQCVDGEWTTLPVCIVEESTCGDIPELEHGWAQLSSPPYYYGDSVEFNCSESFTMIGHRSITCIHGVWTQLPQCVAIDKLKKCKSSNLIILEEHLKNKKEFDHNSNIRYRCRGKEGWIHTVCINGRWDPEVNCSMAQIQLCPPPPQIPNSHNMTTTLNYRDGEKVSVLCQENYLIQEGEEITCKDGRWQSIPLCVEKIPCSQPPQIEHGTINSSRSSQESYAHGTKLSYTCEGGFRISEENETTCYMGKWSSPPQCEGLPCKSPPEISHGVVAHMSDSYQYGEEVTYKCFEGFGIDGPAIAKCLGEKWSHPPSCIKTDCLSLPSFENAIPMGEKKDVYKAGEQVTYTCATYYKMDGASNVTCINSRWTGRPTCRDTSCVNPPTVQNAYIVSRQMSKYPSGERVRYQCRSPYEMFGDEEVMCLNGNWTEPPQCKDSTGKCGPPPPIDNGDITSFPLSVYAPASSVEYQCQNLYQLEGNKRITCRNGQWSEPPKCLHPCVISREIMENYNIALRWTAKQKLYSRTGESVEFVCKRGYRLSSRSHTLRTTCWDGKLEYPTCAKR
**Q.** Does B3 bind [1]?
**A.** binds

B4: factor H-related protein 1 (FHR-1), recombinant (natural protein)
chain: EATFCDFPKINHGILYDEEKYKPFSQVPTGEVFYYSCEYNFVSPSKSFWTRITCTEEGWSPTPKCLRLCFFPFVENGHSESSGQTHLEGDTVQIICNTGYRLQNNENNISCVERGWSTPPKCRSTDTSCVNPPTVQNAHILSRQMSKYPSGERVRYECRSPYEMFGDEEVMCLNGNWTEPPQCKDSTGKCGPPPPIDNGDITSFPLSVYAPASSVEYQCQNLYQLEGNKRITCRNGQWSEPPKCLHPCVISREIMENYNIALRWTAKQKLYLRTGESAEFVCKRGYRLSSRSHTLRTTCWDGKLEYPTCAKR
**Q.** With B4 as the binder, how does the “stoichiometry N” value [2] read?
**A.** 2

B5: factor H-related protein 2 (FHR-2), recombinant (natural protein)
chain: EAMFCDFPKINHGILYDEEKYKPFSQVPTGEVFYYSCEYNFVSPSKSFWTRITCAEEGWSPTPKCLRLCFFPFVENGHSESSGQTHLEGDTVQIICNTGYRLQNNENNISCVERGWSTPPKCRSTISAEKCGPPPPIDNGDITSFLLSVYAPGSSVEYQCQNLYQLEGNNQITCRNGQWSEPPKCLDPCVISQEIMEKYNIKLKWTNQQKLYSRTGDIVEFVCKSGYHPTKSHSFRAMCQNGKLVYPSCEEK
**Q.** Does B5 bind [1]?
**A.** binds

Reference: publication doi:10.1101/413294 (bioRxiv, 2018)
